The results in this text go back to publication doi:10.1101/589119.

The target in the test is core Cascade subunits (crRNA, Cas11, Cas7, Cas5, Cas6e) (E. coli K12) (UniProt Q46899). Description: single-particle tracking PALM.
Chain of UniProt Q46899 (Q46899 whole entry, looked up): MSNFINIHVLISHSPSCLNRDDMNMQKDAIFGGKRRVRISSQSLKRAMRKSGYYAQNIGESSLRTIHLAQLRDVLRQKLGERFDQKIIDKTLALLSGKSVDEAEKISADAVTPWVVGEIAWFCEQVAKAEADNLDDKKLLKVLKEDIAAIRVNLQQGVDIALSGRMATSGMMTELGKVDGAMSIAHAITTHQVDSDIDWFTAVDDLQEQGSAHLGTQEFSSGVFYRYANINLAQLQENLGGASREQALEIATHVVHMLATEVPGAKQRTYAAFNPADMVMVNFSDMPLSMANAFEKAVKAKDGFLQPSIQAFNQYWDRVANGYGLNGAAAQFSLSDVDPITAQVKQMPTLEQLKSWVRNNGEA

For “PAmCherry2-Cas8e (Cascade subunit Cas8e with a photoactivatable fluorescent protein fused to its N-terminus) (natural protein)”, the fraction of Cas8e in Cascade complexes was 60%.
